One assay concerns the target T1, STAT3 (Homo sapiens, UniProt P40763).
T1 construct: made in house; host or cells: Sf9 insect cells co-infected with baculoviruses for STAT3 and Src or Fes (cell extracts)
In words: Disruption of STAT3 DNA-binding activity in vitro by synthetic peptides. The note with it: ne = no effect. From the text: A novel non-radioactive, 96-well plate based assay is used for measuring STAT3 DNA-binding activity (FIG. 30). In this high throughput assay, a biotinylated hSIE probe is used in place of the ^32P-labeled hSIE probe used for EMSA to detect binding of STAT3 dimers. The hSIE oligonucleotide is a high-affinity mutant of the original sis-inducible element in the C-fos gene promoter that binds STAT3. The biotinylated hSIE probe is immobilized onto a streptavidin-coated 96-well plate, permitting a large number of compounds and concentrations to be tested in a single experiment. The source of activated STAT3 is extracts derived from Sf9 insect cells co-infected with baculoviruses encoding STAT3 and either the Src or Fes tyrosine kinases. Using this baculovirus expression system, high levels of activated STAT3 dimers are produced as a result of phosphorylation by the co-expressed tyrosine kinases. Activated STAT3 is added to the 96-well plate in the presence or absence of the compounds to be screened. After incubation for 30 min with compounds, STAT3 dimers that bind to the biotinylated hSIE probe are detected with an anti-Stat3 primary antibody (Santa Cruz Biotechnology) followed by a horseradish-peroxidase conjugated secondary antibody. Immune complexes are detected by colorimetric conversion of the substrate, 3,3′,5,5′-tetramethylbenzidine (TMB) peroxidase, using a conventional ELISA plate reader. Epitope tagged versions of STAT3 expressed from baculoviruses have also been generated that are detected using the cognate primary antibodies. We find these anti-tag antibodies to be more sensitive and/or specific.
To facilitate these high throughput, 96-well plate assays, the screening is automated using an available Beckman 2000 Biotek robotics workstation coupled to an ELISA plate reader. The computer-programmed robotics workstation has multi-volume, multi-component mixing capability that greatly accelerates all of the high throughput assays. Inhibition of STAT3 DNA-binding activity in this assay is readily detected as a loss of signal relative to the controls without added compound. As a positive control and to establish the DNA-binding specificity, activated STAT3 is added in the presence of either excess free hSIE oligonucleotide for competition or a non-binding oligonucleotide, FIRE. […] As a negative control, extracts from IFNa-stimulated cells are used as a source of STAT1, which also binds the hSIE. Initial screens are performed at high concentrations of compounds (e.g., 100 uM), and active compounds are further tested in concentration-response studies.
A total of 19 synthetic peptides are tested based on the PY*LKTK sequence (Y*=phosphotyrosine) and their IC50 is determined in terms of disruption of STAT3 DNA-binding activity in vitro (Table 3).

The target in the next assay is T2, Full length STAT3 (Homo sapiens, UniProt P40763).
T2 construct: Full-length GST-Stat3, immobilized to glutathione-Sepharose beads, is used to screen a display peptide library; made in house; host or cells: E. coli
In words: Phage display panning, 12-mer peptide library, on full-length GST-Stat3. It counts as binding. From the text:
Phage display peptide libraries are used because of two powerful features. First, phage libraries generate an enormous diversity of peptides that can be subjected to affinity selection by panning. […] These combinatorial libraries are based on random short peptide sequences fused to a coat protein of bacteriophage, herein pIII of the filamentous coliphage MI3. Panning of the peptide library using an immobilized target, herein STAT3 fusion proteins bound onto beads, is used to select for peptide sequences that bind to STAT3. […] Peptide sequences that occur at elevated frequencies are good candidates for ST4T3-specific binding peptides. […] These cyclic peptides have the advantage of reducing entropic freedom, thereby potentially increasing binding specificity and affinity relative to linear peptides. Another variation on this approach is to combine “affinity maturation” with the phage display peptide library [Scott & Smith, 1990, Science, 249:386-390].
The GST-Stat3 fusion protein is purified on glutathione-Sepharose beads according to standard methods. The first library screened is obtained from a commercial source (New England Biolabs) and consists of random 12 amino acid sequences with a complexity of 1.9×10^9 independent transformants, each theoretically represented approximately 70 times in 1.4×10^11 phage particles. […] This is due to the inability of peptidases to cleave adjacent to proline residues in the peptide leader sequence, which is required for secretion. The titer of the original phage library after one round of amplification is 1.4×10^13 pfu/ml (plaque forming units per ml).
For panning phage with the STAT3 fusion protein, 50 ul of glutathione-Sepharose beads bound to purified GST-Stat3 fusion protein are washed with phosphate buffered saline (PBS). The beads are then incubated with 10 ul of phage suspension (1.4×10^11 virions) in 200 ul final volume of PBS for 30 min at room temperature with occasional mixing. The beads are gently pelleted in a microcentrifuge, and washed 10 times with 1 ml of PBS to remove unbound phage. Background of non-specifically bound phage is reduced by a variety of methods, including pre-blocking the beads with bovine serum albumin, pre-clearing the phage library with GST-glutathione-Sepharose beads, and washing the beads with increasing salt concentrations. Bound phage virions are eluted from the beads by incubation with a molar excess of glutathione for 30 min at room temperature. A small aliquot of the phage eluate is titered and the rest is amplified on the E. coli ER2537 host strain. Following amplification, the phage are purified by polyethylene glycol (PEG) precipitation and then the titer is determined again. Using 1-2×10^11 phage particles from the amplified eluate as input, the above binding and amplification steps are repeated a total of 3 to 4 times. After the final titering step, 40-100 isolated plaques are amplified for DNA sequencing to identify a consensus binding sequence. Sequence analysis is performed by automated sequencing on a Pharmacia ALF sequencer.
Full-length GST-Stat3, immobilized to glutathione-Sepharose beads, is used to screen a display peptide library containing 1.9×10^9 random 12-mer peptides positioned at the N-terminus of a minor coat protein (pIII) of the M13 filamentous bacteriophage. Based on their frequencies shown in Table 1, the five most promising peptides from a 12-mer peptide library that bind to full-length STAT3 are listed.

In assay [1] the test system is Bcl-xL overexpressing U266 cells. In words: Drug-induced apoptosis in U266 cells overexpressing Bcl-xL. The note with it: stable U266 clones overexpressing Bcl-xL; 24 h for melphalan and mitoxantrone. It is filed as cell-based, human. The method, then: FIG. 23 Enforced Overexpression of Bcl-x Confers Resistance to Chemotherapy. Panel A: U266 cells are transfected with a CMV expression vector encoding Bcl-x, tagged with the FLAG epitope. Several stable, independent clones overexpressing Bcl-xL, as well as empty vector controls (Neo), are isolated and analyzed by Western blot with antibodies to Bcl-xL, or the FLAG epitope tag. B: The indicated cell lines are incubated with either melphalan (LPAM) or mitoxantrone for 24 h, and apoptosis is monitored by AnnexinV-FITC staining and flow cytometry. Overexpression of Bcl-xL protects the cells from chemotherapy-induced apoptosis.
These Bcl-xL overexpressing cells are resistant to apoptosis induced by AG490, as predicted since the ectopic Bcl-xL is expressed from a CMV promoter and is thus independent of JAK-STAT signaling. […] These findings support one embodiment of the present invention, that Bcl-x confers resistance to chemotherapy-induced apoptosis, and therefore that inhibition of STAT3 signaling promotes chemotherapy-induced apoptosis.

Another assay has as its system U266 cells. In words: Fas-mediated apoptosis (Annexin V, flow cytometry) in U266 cells. It counts as cell-based, human. Conditions: 500 ng/ml CH-11 or 100 ng/ml Fas ligand. The protocol:
For surface detection of the Fas receptor, 10^6 cells are suspended in […] PBS with 2.5 mg/ml mouse IgM (Sigma) and […] UB2 antibody (MBL) or IgG1, isotype control serum (Dako). Following 30 min incubation at room temperature, cells are washed with PBS, and incubated in the dark for 30 min with goat anti-mouse Ig-FITC. Fluorescence is measured on a FACScan flow cytometer and analyzed using CellQuest software (Becton Dickinson). For cell cycle analysis, 10^6 cells are fixed in ice-cold ethanol for a minimum of 2 h, washed with PBS, and stained with 5 mg/ml propidium iodide (PI) and […] at 37° C. for 30 min prior to analysis by flow cytometry. […] Apoptosis is measured by staining with Annexin V-FITC (Clontech) and flow cytometry analysis. Fas-specific death is calculated as (% Annexin V positive cells in the CH-11 treated population)−(% Annexin V positive cells in the IgM control population). Programmed cell death in cells transfected with the bicistronic green fluorescent protein vectors (pIRES-EGFP or pIRES-Stat3b) is analyzed after staining with Annexin V-PE (Pharmingen) by two color flow cytometry analysis. Apoptotic morphology of DAPI-stained nuclei and green/red fluorescence is confirmed by fluorescence microscopy.
For orientation: A flow cytometer gives signals particle by particle.

A further assay concerns MPC11 tumors. In words: MPC11 myeloma tumor growth in vivo. On the set-up: species or system BALB/c mice. Conditions: MPC11 tumor-bearing mice, rIL-12 alone, 200 ng every second day. The protocol:
Mice and tumor formation in vivo. Six- to eight-week old female BALB/c mice are obtained from the National Cancer Institute (Frederick, Md.). Cohorts of 3-5 mice per group are used for these experiments. Mice are shaved on the right flank and injected subcutaneously (s.c.) with 5×10^5 of either MOPC or MPC11 cells in […] of PBS to induce tumors.
In vivo treatment with AG-490 and IL-12. When tumors reach about 5 […] in diameter, AG-490 treatment of tumors is initiated and continued daily for 7-10 days. For MOPC tumors, injections of 0.85 mg/day of AG-490 are given intratumorally, supplemented with 0.5 mg/day of AG-490 i.p. For MPC11 tumors, the intratumoral treatment is halved while the i.p. dose remains the same. Control mice receive 50% DMSO vehicle alone in the same volume as the AG-490 treatment group. Recombinant IL-12 is given s.c. at either 100 ng or 200 ng every other day. Tumor growth is monitored daily by measuring two perpendicular tumor diameters with a caliper, and tumor volume was calculated according to the formula V=0.52*a*b(a+b)/2 (a=smallest superficial diameter; b=largest superficial diameter).

Non-standard residues stand in square brackets, D forms with d. No end group written: not given here. pY = N[C@@H](Cc1ccc(OP(=O)(O)O)cc1)C(=O)O

T2 sequence (P40763 whole entry, species assumed): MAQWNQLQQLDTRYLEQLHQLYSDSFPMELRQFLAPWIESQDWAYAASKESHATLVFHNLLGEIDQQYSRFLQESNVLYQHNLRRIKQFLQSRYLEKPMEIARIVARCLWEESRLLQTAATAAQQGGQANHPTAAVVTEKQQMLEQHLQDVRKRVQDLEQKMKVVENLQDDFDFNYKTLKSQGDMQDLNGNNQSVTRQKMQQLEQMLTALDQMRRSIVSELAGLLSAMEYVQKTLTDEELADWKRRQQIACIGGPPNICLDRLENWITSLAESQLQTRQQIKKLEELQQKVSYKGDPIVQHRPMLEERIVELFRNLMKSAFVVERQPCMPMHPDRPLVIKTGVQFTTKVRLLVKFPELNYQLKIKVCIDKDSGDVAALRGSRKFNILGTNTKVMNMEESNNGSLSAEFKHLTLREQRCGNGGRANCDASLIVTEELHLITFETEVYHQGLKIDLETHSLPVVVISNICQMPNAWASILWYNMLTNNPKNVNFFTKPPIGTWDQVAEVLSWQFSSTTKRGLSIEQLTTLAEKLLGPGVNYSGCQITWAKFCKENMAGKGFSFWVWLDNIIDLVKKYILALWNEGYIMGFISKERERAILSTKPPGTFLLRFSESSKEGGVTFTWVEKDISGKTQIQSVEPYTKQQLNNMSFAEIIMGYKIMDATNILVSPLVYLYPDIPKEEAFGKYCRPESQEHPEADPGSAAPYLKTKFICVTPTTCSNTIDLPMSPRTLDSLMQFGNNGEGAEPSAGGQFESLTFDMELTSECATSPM
T1 sequence (P40763 whole entry, species assumed): as above

With PFLKTK, on STAT3, the “IC50, disruption of STAT3 DNA-binding activity” value (“IC50, disruption” below) was “ne”.
In the case of QDVHLTQQSRYT (listed as Homo sapiens), the “Frequency (out of 100 clones)” value with Full length STAT3 was 13%.
Regarding `O=C1c2c(O)ccc(O)c2C(=O)c2c(NCCNCCO)ccc(NCCNCCO)c21` [mitoxantrone], the “apoptosis induced in Bcl-xL overexpressing cells” value in assay [1] is on record as “resistant”.
YPAPQPLVTKTS (listed as Homo sapiens): the “Frequency (out of 100 clones)” value in the assay with Full length STAT3 is 8%.
In the case of HY(S/P)PILVYQPSW, the “Frequency (out of 100 clones)” value with Full length STAT3 was found to be 25%.
Regarding FSYPLTRAPLNM (listed as Homo sapiens), the “Frequency (out of 100 clones)” value with Full length STAT3 worked out at 8%.
Turning to “PY*AKTK (P[pY]AKTK; listed as Homo sapiens) [synthetic peptide, Y* = phosphotyrosine]”, the “IC50, disruption” value in the assay with STAT3 is “ne”.
As to `N[C@@H](Cc1ccc(N(CCCl)CCCl)cc1)C(=O)O` [melphalan], the “apoptosis induced in Bcl-xL overexpressing cells” value in assay [1] is “resistant”.
In the case of “Y*LK ([pY]-Leu-Lys; listed as Homo sapiens) [synthetic peptide, Y* = phosphotyrosine]”, the “IC50, disruption” value in the assay with STAT3 was “ne”.
With SHPWNAQRELSV (listed as Homo sapiens), the “Frequency (out of 100 clones)” value in the assay with Full length STAT3 was found to be 9%.
Regarding “PYLKTK [synthetic peptide, unphosphorylated]”, on STAT3, the “IC50, disruption” value was “ne”.

B1: Fas ligand: Fas ligand (Alexis) (protein, UniProt P48023 130-281, looked up)
Tumor necrosis factor ligand …: QIGHPSPPPEKKELRKVAHLTGKSNSRSMPLEWEDTYGIVLLSGVKYKKGGLVINETGLYFVYSKVYFRGQSCNNLPLSHKVYMRNSKYPQDLVMMEGKMMSYCTTGQMWARSSYLGAVFNLTSADHLYVNVSELSLVNFEESQTFFGLYKL
On to B1, for which the Fas-mediated cell death result with U266 cells was “completely resistant”.

B2: rIL-12: recombinant IL-12 (Genetics Institute) (protein, UniProt P29459 23-219; P29460 23-328, looked up)
Interleukin-12 subunit alpha: RNLPVATPDPGMFPCLHHSQNLLRAVSNMLQKARQTLEFYPCTSEEIDHEDITKDKTSTVEACLPLELTKNESCLNSRETSFITNGSCLASRKTSFMMALCLSSIYEDLKMYQVEFKTMNAKLLMDPKRQIFLDQNMLAVIDELMQALNFNSETVPQKSSLEEPDFYKTKIKLCILLHAFRIRAVTIDRVMSYLNAS
Interleukin-12 subunit beta: IWELKKDVYVVELDWYPDAPGEMVVLTCDTPEEDGITWTLDQSSEVLGSGKTLTIQVKEFGDAGQYTCHKGGEVLSHSLLLLHKKEDGIWSTDILKDQKEPKNKTFLRCEAKNYSGRFTCWWLTTISTDLTFSVKSSRGSSDPQGVTCGAATLSAERVRGDNKEYEYSVECQEDSACPAAEESLPIEVMVDAVHKLKYENYTSSFFIRDIIKPDPPKNLQLKPLKNSRQVEVSWEYPDTWSTPHSYFSLTFCVQVQGKSKREKKDRVFTDKTSATVICRKNASISVRAQDRYYSSSWSEWASVPCS
For the molecule B2, the tumor growth result with MPC11 tumors is listed as “only slightly inhibits”.

Source of the values: US9345682B2, “Inhibition of STAT3 signal transduction for human cancer therapy” (University of South Florida, priority 1999, dated 2016).
